Laboratory results taken from PMC2770460, “Karyopherin binding interactions and nuclear import mechanism of nuclear pore complex protein Tpr” (BMC Cell Biology, 2009).

Target: His-importin α (human, UniProt P52292 1-529)
Assay: ELISA; solid phase binding assay: Maxisorp microtiter plates coated with 25 ng of Tpr or C-Tpr; increasing concentrations of the soluble protein; bound protein detected with primary antibodies and horseradish peroxidase-conjugated secondary antibodies (TMB); apparent Kd from B = Bmax x Y/(Kd + Y); CRM1, NES and RanGTP at equimolar concentrations
Conditions: both partners purified

B1: C-terminal domain of Tpr (C-Tpr, residues 1626-2348) (domain or fragment)
chain: EQRDEPQEPSNKVPEQQRQITLKTTPASGERGIASTSDPPTANIKPTPVVSTPSKVTAAAMAGNKSTPRASIRPMVTPATVTNPTTTPTATVMPTTQVESQEAMQSEGPVEHVPVFGSTSGSVRSTSPNVQPSISQPILTVQQQTQATAFVQPTQQSHPQIEPANQELSSNIVEVVQSSPVERPSTSTAVFGTVSATPSSSLPKRTREEEEDSTIEASDQVSDDTVEMPLPKKLKSVTPVGTEEEVMAEESTDGEVETQVYNQDSQDSIGEGVTQGDYTPMEDSEETSQSLQIDLGPLQSDQQTTTSSQDGQGKGDDVIVIDSDDEEEDDDENDGEHEDYEEDEEDDDDDEDDTGMGDEGEDSNEGTGSADGNDGYEADDAEGGDGTDPGTETEESMGGGEGNHRAADSQNSGEGNTGAAESSFSQEVSREQQPSSASERQAPRAPQSPRRPPHPLPPRLTIHAPPQELGPPVQRIQMTRRQSVGRGLQLTPGIGGMQQHFFDDEDRTVPSTPTLVVPHRTDGFAEAIHSPQVAGVPRFRFGPPEDMPQTSSSHSDLGQLASQGGLGMYETPLFLAHEEESGGRSVPTTPLQVAAPVTVFTESTTSDASEHASQSVPMVTTSTGTLSTTNETATGDDGDEVFVEAESEGISSEAGLEIDSQQEEEPVQASDESDLPSTSQDPPSSSSVDTSSSQPKPFRRVRLQTTLRQGVRGRQFNRQRGVS
Kd: 21.5 nM
